Blank lines part the entries; values can stand above or below the binder they belong to.
Assays:
[1] = target: T1, mouse c-CDCP1 on Fc1245 cells (mouse) (UniProt Q5U462); assay: flow cytometry on Fc1245 c-CDCP1 cells (FIG. 9B); FIG. 9B
T1 sequence 1: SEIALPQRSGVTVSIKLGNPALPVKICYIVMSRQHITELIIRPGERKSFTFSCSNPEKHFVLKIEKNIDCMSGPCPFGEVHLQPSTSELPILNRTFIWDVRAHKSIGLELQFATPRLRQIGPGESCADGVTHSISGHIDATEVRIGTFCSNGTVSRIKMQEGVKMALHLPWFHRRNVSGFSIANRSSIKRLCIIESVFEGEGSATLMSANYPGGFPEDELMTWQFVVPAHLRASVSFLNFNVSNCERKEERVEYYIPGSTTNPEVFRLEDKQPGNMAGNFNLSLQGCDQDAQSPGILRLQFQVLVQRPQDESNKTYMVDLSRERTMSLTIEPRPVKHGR
T1 sequence 2: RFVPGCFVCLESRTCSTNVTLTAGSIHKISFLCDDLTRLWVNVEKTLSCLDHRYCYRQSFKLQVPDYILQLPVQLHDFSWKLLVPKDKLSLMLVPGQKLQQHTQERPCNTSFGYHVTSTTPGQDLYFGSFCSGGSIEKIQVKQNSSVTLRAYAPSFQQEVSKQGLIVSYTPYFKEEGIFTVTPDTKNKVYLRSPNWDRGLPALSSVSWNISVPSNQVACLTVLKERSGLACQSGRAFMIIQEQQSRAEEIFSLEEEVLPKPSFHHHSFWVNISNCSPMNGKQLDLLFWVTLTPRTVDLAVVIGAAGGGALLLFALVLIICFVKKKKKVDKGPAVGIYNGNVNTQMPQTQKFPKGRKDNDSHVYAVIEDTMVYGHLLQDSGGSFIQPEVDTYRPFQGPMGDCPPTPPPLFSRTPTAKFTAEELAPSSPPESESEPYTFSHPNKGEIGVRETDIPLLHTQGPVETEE

[2] = target: T2, mouse c-CDCP1 (recombinant cleaved mouse CDCP1) (mouse, UniProt Q5U462 30-368; Q5U462 369-666, limits assumed); assay: BLI (Octet), table of binding affinities to mCDCP1
T2 construct: Mouse antigens made were c-CDCP1-Fc (Cut 1) and (Cut 2); also called mouse cleaved CDCP1; cleaved mCDCP1
T2 sequence 1: T1 sequence 1
T2 sequence 2: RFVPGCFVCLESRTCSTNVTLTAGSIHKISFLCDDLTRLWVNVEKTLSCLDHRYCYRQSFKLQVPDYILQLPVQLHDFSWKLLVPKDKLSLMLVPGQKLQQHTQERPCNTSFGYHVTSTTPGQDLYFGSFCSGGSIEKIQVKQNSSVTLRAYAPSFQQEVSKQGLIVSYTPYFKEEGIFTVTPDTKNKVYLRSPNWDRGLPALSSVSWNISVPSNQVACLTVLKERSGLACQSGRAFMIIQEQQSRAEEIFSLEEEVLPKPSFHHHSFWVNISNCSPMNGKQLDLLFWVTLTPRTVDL

[3] = target: T3, c-CDCP1 Cut 3 N-terminal fragment (NTF) (human, UniProt Q9H5V8 30-369); assay: co-transfection of NTF and CTF plasmids (Cut 3), Ni-NTA co-purification
T3 construct: also called NTF (Cut 3)
T3 sequence: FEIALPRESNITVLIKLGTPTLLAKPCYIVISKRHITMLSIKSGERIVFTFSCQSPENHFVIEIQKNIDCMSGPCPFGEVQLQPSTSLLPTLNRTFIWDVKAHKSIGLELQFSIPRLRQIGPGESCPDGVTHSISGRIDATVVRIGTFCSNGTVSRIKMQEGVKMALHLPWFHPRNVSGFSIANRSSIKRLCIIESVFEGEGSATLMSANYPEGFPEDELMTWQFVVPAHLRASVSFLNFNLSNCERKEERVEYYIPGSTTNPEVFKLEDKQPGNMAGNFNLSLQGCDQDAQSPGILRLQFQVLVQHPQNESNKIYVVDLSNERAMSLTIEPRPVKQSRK
Source text: (§1) In the present example, CDCP1 antigen with endogenous cut sites was generated. Generation of the CDCP1 antigen proceeded by co-transfection of the two fragments on separate plasmids. One set of plasmids encoding the NTF of CDCP1, ending after the PI residue of the 3 different cut sites, was designed; and a second set of plasmids encoding the C-terminal ectodomain of CDCP1 starting at the P1′ residue of the 3 different cut sites (c-CDCP1 Cut 1, Cut 2, Cut 3), was designed (FIG. 3A). Uncleaved CDCP1 ectodomain was generated with a single plasmid encoding the entire ectodomain (fl-CDCP1). Following co-transfection of pairs of NTF and CTF plasmids, an intact cleaved CDCP1 complex was purified by Ni-NTA affinity chromatography for all of the NTF+CTF cut variants (FIG. 3B). In parallel, fl-CDCP1 and c-CDCP1 ectodomains fused to an Fc domain were generated for use in phage selection, using the same co-transfection strategy (FIG. 3H-FIG. 3L). Three pairs of NTF and CTF-Fc plasmids were made that ends or starts at the 3 different cut sites of cleaved CDCP1. An SDS-PAGE gel of fl-CDCP1-Fc and c-CDCP1-Fc (Cut 1, Cut 2, Cut 3) was run (FIG. 3I).

c-CDCP1-Fc (Cut 2) = target: T4, c-CDCP1-Fc (Cut 2) (human, UniProt Q9H5V8 30-368; Q9H5V8 369-667); assay: BLI (Octet RED384) on c-CDCP1-Fc (Cut2); antibody concentration not given
T4 construct: Co-transfection of NTF and CTF-Fc plasmids; not shown: Fc domain
T4 sequence 1: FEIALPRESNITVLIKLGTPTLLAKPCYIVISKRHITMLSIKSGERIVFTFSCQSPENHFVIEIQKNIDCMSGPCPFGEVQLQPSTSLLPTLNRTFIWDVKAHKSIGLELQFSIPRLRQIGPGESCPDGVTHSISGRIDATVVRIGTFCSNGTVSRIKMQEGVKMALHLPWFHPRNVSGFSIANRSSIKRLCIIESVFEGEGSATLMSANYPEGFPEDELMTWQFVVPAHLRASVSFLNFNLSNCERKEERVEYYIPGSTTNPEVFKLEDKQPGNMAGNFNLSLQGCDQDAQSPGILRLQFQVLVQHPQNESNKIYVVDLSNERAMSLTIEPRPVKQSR
T4 sequence 2: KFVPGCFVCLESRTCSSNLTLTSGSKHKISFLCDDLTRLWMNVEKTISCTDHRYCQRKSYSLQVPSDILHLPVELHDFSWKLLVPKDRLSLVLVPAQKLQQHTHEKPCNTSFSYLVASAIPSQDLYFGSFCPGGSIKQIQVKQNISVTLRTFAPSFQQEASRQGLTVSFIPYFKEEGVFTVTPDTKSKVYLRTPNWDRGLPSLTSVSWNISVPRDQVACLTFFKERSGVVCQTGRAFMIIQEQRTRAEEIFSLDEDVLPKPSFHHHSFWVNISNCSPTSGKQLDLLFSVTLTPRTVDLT
Method: BLI experiments were performed using an Octet RED384 instrument (ForteBio). Biotinylated proteins were immobilized on a streptavidin (SA) biosensor and His-tagged proteins were immobilized on a Ni-NTA biosensor. Different concentrations of analyte in PBS pH 7.4+0.05% Tween-20+0.2% BSA (PBSTB) were used as analyte. Affinities (KDS) were calculated from a global fit (1:1) of the data using the Octet RED384 software.
Furthermore, variants of CL03 were evaluated for binding to c-CDCP1-Fc (Cut2) by BLI assays using an Octet RED384 instrument (ForteBio) (FIG. 16A) using a procedure as generally described in Example 1. The variants also were evaluated by SEC-based analysis (FIG. 16B) as generally described in Example 1. The variants evaluated by BLI assays and SEC-based analysis included the variants referred to as IgG87, IgG89, IgG94, IgG97, IgG101 (CL03 IgG H1-NtoD H3-MtoA), and IgG102.

[4] = target: T5, c-CDCP1 Cut 2 N-terminal fragment (NTF) (human, UniProt Q9H5V8 30-368); assay: co-transfection of NTF and CTF plasmids (Cut 2), Ni-NTA co-purification
T5 construct: also called NTF (Cut 2)
T5 sequence: T4 sequence 1
Source text: as §1

[5] = target: T6, c-CDCP1 Cut 1 N-terminal fragment (NTF) (human, UniProt Q9H5V8 30-365); assay: co-transfection of NTF and CTF plasmids (Cut 1), Ni-NTA co-purification
T6 construct: also called NTF (Cut 1)
T6 sequence: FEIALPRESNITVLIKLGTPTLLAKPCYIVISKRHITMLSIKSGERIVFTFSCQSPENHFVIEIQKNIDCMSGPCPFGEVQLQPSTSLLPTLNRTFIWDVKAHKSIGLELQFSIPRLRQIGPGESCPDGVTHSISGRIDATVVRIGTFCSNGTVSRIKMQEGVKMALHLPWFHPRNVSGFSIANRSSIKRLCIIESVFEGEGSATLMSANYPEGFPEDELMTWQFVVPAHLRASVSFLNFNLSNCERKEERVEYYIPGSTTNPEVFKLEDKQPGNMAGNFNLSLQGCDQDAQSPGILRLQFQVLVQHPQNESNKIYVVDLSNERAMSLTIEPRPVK
Source text: as §1

B1: IgG 58 (antibody, V domains shown)
VH: EVQLVESGGGLVQPGGSLRLSCAASGFNVYSYSIHWVRQAPGKGLEWVASISSSSGSTSYADSVKGRFTISADTSKNTAYLQMNSLRAEDTAVYYCARYYWDPWQYASYSYLAFDYWGQGTLVTVSS
VL: MTQSPSSLSASVGDRVTITCRASQSVSSAVAWYQQKPGKAPKLLIYSASSLYSGVPSRFSGSRSGTDFTLTISSLQPEDFATYYCQQTYSGPITFGQGTKVEIKR
notes: Mouse cleaved-CDCP1-specific antibody; also called Ab58; IgG 0058
- EC50 [1]: 6.9 nM
- Kd [2]: 0.8 nM

B2: c-CDCP1 Cut 3 C-terminal fragment (CTF) of the ectodomain (receptor)
chain: FVPGCFVCLESRTCSSNLTLTSGSKHKISFLCDDLTRLWMNVEKTISCTDHRYCQRKSYSLQVPSDILHLPVELHDFSWKLLVPKDRLSLVLVPAQKLQQHTHEKPCNTSFSYLVASAIPSQDLYFGSFCPGGSIKQIQVKQNISVTLRTFAPSFQQEASRQGLTVSFIPYFKEEGVFTVTPDTKSKVYLRTPNWDRGLPSLTSVSWNISVPRDQVACLTFFKERSGVVCQTGRAFMIIQEQRTRAEEIFSLDEDVLPKPSFHHHSFWVNISNCSPTSGKQLDLLFSVTLTPRTVDLT
notes: Tag for Ni-NTA purification not described; also called CTF (Cut 3)
- binding result [3]: binds

Second part, the binder after the results:

- binding result (c-CDCP1-Fc (Cut 2)): binds
B3: IgG102 (antibody, V domains shown)
VH: EVQLVESGGGLVQPGGSLRLSCAASGFDFSSYSIHWVRQAPGKGLEWVASSYPYSGSTYYADSVKGRFTISADTSKNTAYLQMNSLRAEDTAVYYCARQSHSYYSHTWWVSYGMDYWGQGTLVTVSS
VL: DIQMTQSPSSLSASVGDRVTITCRASQSVSSAVAWYQQKPGKAPKLLIYSASSLYSGVPSRFSGSRSGTDFTLTISSLQPEDFATYYCQQSGQRPITFGQGTKVEIK

- binding result [4]: binds
B4: c-CDCP1 Cut 2 C-terminal fragment (CTF) of the ectodomain (receptor)
chain: T4 sequence 2
notes: Tag for Ni-NTA purification not described; also called CTF (Cut 2)

- binding result [5]: binds
B5: c-CDCP1 Cut 1 C-terminal fragment (CTF) of the ectodomain (receptor)
chain: QSRKFVPGCFVCLESRTCSSNLTLTSGSKHKISFLCDDLTRLWMNVEKTISCTDHRYCQRKSYSLQVPSDILHLPVELHDFSWKLLVPKDRLSLVLVPAQKLQQHTHEKPCNTSFSYLVASAIPSQDLYFGSFCPGGSIKQIQVKQNISVTLRTFAPSFQQEASRQGLTVSFIPYFKEEGVFTVTPDTKSKVYLRTPNWDRGLPSLTSVSWNISVPRDQVACLTFFKERSGVVCQTGRAFMIIQEQRTRAEEIFSLDEDVLPKPSFHHHSFWVNISNCSPTSGKQLDLLFSVTLTPRTVDLT
notes: Tag for Ni-NTA purification not described; also called CTF (Cut 1)

Reference: patent US20240376224A1 (University of California, published 2024)
